Experimental data: article PMC10781750, “Structural basis of antiphage immunity generated by a prokaryotic Argonaute-associated SPARSA system” (Nature Communications, 2024)

Target: T1, GsSir2 (Sir2-APAZ protein of the SPARSA system from Geobacter sulfurreducens) (Geobacter sulfurreducens, UniProt Q74DF6 1-586)
T1 construct: GsSir2 of Geobacter sulfurreducens, NP_952413.1; That the His tag sits on GsSir2, the first gene of Sir2-RBS-pAgo, is surmised; source: E. coli BL21(DE3), coexpressed with pAgo, purified (Ni-NTA, Superdex 200 SEC)
T1 sequence: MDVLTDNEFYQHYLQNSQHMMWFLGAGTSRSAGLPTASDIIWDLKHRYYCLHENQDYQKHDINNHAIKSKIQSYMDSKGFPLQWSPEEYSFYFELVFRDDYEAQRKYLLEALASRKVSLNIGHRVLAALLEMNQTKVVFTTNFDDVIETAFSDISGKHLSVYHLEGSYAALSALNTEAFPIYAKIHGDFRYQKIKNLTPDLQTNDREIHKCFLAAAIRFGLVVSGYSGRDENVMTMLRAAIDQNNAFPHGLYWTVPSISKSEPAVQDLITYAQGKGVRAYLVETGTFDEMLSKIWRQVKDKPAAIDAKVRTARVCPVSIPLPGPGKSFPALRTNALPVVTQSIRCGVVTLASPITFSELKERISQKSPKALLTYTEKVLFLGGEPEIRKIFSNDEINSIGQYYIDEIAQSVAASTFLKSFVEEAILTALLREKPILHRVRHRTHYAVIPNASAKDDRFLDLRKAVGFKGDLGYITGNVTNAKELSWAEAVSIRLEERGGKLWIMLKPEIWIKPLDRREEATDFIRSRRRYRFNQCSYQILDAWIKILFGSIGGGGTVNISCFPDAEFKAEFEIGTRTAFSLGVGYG
Experiment: cryo-EM structure; SPARSA heterodimer (GsSir2 + pAgo) coexpressed and co-purified, endogenous NAD+ bound, no nucleic acids; 2 mg/mL; 3.6 Å
Conditions: both partners purified

B1: pAgo (short prokaryotic Argonaute of the SPARSA system from Geobacter sulfurreducens) (natural protein)
chain: not shown
notes: short pAgo of Geobacter sulfurreducens, NP_952414.1; MID domain residues 1-218, PIWI domain residues 219-473; no tag of its own is described; also called short pAgo; source: E. coli BL21(DE3), coexpressed with GsSir2, purified (Ni-NTA, Superdex 200 SEC)
Q: B1 was tested. Which “stoichiometry N” value did it give?
A: 1
